# Laboratory results: patent US20220323580A1 (Janssen / Centocor, published 2022)
# How the values were obtained:
# recombinant human TNFα [1] = target: T1, recombinant human TNFα (human, UniProt P01375 77-233, 125I-labeled in the receptor blocking assay); assay: competition radioligand assay: mAb in hybridoma supernatant preincubated with 5 ng/ml 125I-TNFα, then cpm bound to plate-coated p55-sf2 counted; blocked partner p55-sf2
# T1 construct: It is not tied to the protein used in the assays, so it is not used here; also called huTNFα; tumor necrosis factor alpha
# Procedure: Each sample was tested in duplicate. The results shown are representative of two independent experiments.
# (§1) 50:1 of p55-sf2 at 0.5:g/ml in PBS was added to Optiplates to coat the wells during a one-hour incubation at 37° C. Serial dilutions of the eight TNV cell supernatants were prepared in 96-well round-bottom plates using PBS/0.1% BSA as diluent. […] The mixture was preincubated for one hour at RT. […] After 2 hrs at RT, Optiplates were washed three times with PBS-Tween. […] of Microscint-20 was added and the cpm bound determined using the TopCount […].
# recombinant human TNFα [2] = target: T1, recombinant human TNFα; assay: competition: 125I-TNFα binding to plate-coated p55-sf2, hybridoma supernatant
# Procedure: as §1
# The concentrations of the TNV mAbs in their respective cell supernatants were first determined by standard ELISA analysis for human IgG.
# recombinant human TNFα [3] = target: T1, recombinant human TNFα; assay: cell-based or functional assay
Binder,IC50 (read off the curve) (recombinant human TNFα [1]),fold better at blocking TNF binding (vs TNV118 and TNV14) (recombinant human TNFα [2]),neutralizing TNFα bioactivity (recombinant human TNFα [3])
"TNV15 (antibody, human IgG1, V domains shown, Totally human IgG1 kappa mAb from the GenTNV fusion, tested as hybridoma supernatant; also called GenTNV15.28.11; C415A) VH: QVQLVESGGGVVQPGRSLRLSCAASGFTFSSYAMHWVRQAPGKGLEWVAFILYDGSNKKYADSVKGRFTISRDNSKNALYLQMNSLRAEDTAVYYCARDRGVSAGGNYYYYGMDVWGQGTTVTVSS VL: EIVLTQSPATLSLSPGERATLSCRASQSVSSYLAWYQQKPGQAPRLLIYDASNRATGIPARFSGSGSGTDFTLTISSLEPEDFAVYYCQQRSNWPPFTFGPGTKVDIK",~4 ng/mL,–,–
"TNV86 (antibody, V domains shown, also called GenTNV86.14.34; C417A) VH: QVQLVESGGGVVQPGRSLRLSCAASGFIFSSYAMHWVRQAPGNGLEWVAFMSYDGSNKKYADSVKGRFTISRDNPKNTLYLQMNSLRAEDTAVYYCARDRGIAAGGNYYYYGMDVWGQGTTVTVSS VL: EIVLTQSPATLSLSPGERATLSCRASQSVYSYLAWYQQKPGQAPRLLIYDASNRATGIPARFSGSGSGTDFTLTISSLEPEDFAVYYCQQRSNWPPFTFGPGTKVDIK",–,~4 fold,–
"TNV196 (antibody, human IgG1, V domains shown, Totally human IgG1 kappa mAb from the GenTNV fusion, tested as hybridoma supernatant; also called GenTNV196.9.1; C421A) VH: QVQLVESGGGVVQPGRSLRLSCAASGFTFSSYAMHWVRQAPGKGLEWVAFISYDGSNKKSADSVKGRFTVSRDNSKNTLFLQMNSLRAEDTAVFYCARDRGIGAGGNYYYYGMDVWGQGTTVTVSS VL: EIVLTQSPATLSLSPGERATLSCRASQSVYSYLAWYQQKPGQAPRLLIYDASNRATGIPARFSGSGSGTDFTLTISSLEPEDFAVYYCQQRSNWPPFTFGPGTKVDIK",~4 ng/mL,–,4 fold (vs TNV14)
"TNV148 (antibody, V domains shown, also called GenTNV148.26.12; C420A) VH: QVQLVESGGGVVQPGRSLRLSCAASGFIFSSYAMHWVRQAPGNGLEWVAFMSYDGSNKKYADSVKGRFTISRDNPKNTLYLQMNSLRAEDTAVYYCARDRGIAAGGNYYYYGMDVWGQGTTVTVSS VL: EIVLTQSPATLSLSPGERATLSCRASQSVYSYLAWYQQKPGQAPRLLIYDASNRATGIPARFSGSGSGTDFTLTISSLEPEDFAVYYCQQRSNWPPFTFGPGTKVDIK",~4 ng/mL,~4 fold,4 fold (vs TNV14)
